Where two headings read alike, the source gives them in different places.
Legend:
[1] = molecular target: T1, VEGF165 (VEGF-A isoform 165) (UniProt P15692-4 27-191); experiment: EMSA
[2] = molecular target: T1, VEGF165 (VEGF-A isoform 165); experiment: EMSA; remark: listed apart in the source

| Binder | binding result [1] | binding result [2] |
| --- | --- | --- |
| TGTGGGGGTGGACGGGCCGGGTAGA (structured_DNA) [V7t1 not-annealed (about 73% dimer, 26% monomer)] | binds |  |
| TGTGGGGGTGGACGGGCCGGGTAGA (structured_DNA) [V7t1 dimer (purified SE-HPLC peak 1)] |  | binds |
